Drawing on paper doi:10.1101/521658 (bioRxiv, 2019), this text covers Kd for 1 molecule.

The test deals with T1, 6HIS-Δ38NADKc-1, refolded (A. thaliana, UniProt Q0WUY1 39-534).
T1 sequence (looked up): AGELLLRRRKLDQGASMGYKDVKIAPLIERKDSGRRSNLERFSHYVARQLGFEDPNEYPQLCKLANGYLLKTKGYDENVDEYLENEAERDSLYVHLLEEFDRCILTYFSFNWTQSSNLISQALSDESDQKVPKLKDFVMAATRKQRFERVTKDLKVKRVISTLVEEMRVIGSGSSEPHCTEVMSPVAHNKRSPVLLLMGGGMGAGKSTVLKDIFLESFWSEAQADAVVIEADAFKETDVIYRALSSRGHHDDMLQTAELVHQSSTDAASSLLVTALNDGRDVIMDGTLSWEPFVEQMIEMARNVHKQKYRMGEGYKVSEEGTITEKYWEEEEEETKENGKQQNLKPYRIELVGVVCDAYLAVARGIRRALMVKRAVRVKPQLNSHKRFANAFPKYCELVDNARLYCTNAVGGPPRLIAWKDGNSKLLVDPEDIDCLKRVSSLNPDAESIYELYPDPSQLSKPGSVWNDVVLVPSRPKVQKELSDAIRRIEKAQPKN
Briefly: enzyme activity titration.

B1: A. thaliana (At) CaM1 (natural protein)
chain: not shown
The term Kd denotes the free concentration of one partner at which half of the binding sites on the other are occupied at equilibrium, for simple one-to-one binding. Read a high Kd as weaker binding. In turn, B1 showed a dissociation constant Kd of 600 to 1000 pM.
